What was measured:
[1] = molecular target: T1, GST-LEC2-B3 (Arabidopsis thaliana, UniProt Q1PFR7); experiment: EMSA; BLI: Octet Qke, 1x Kinetics Buffer (ForteBio), pH 7.0, 0.05 uM biotinylated probe on streptavidin, temperature not stated; EMSA: MgCl2, 0.05% NP-40, 0.5 nM probe, 15 ul, room temperature 20 min, 6% gel in 0.5x TBE (rest of buffer not in material); conditions: protein: recombinant; tags: GST (N-terminal, pGEX-2T); label: 5' biotin on strand 1 (strand 2 oligo also named 5-Biotin-probe); blunt
T1 chain: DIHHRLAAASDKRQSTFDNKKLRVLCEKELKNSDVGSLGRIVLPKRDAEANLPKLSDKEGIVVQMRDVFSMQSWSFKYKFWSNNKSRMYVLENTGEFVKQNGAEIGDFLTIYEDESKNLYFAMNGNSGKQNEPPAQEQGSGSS

[2] = molecular target: T2, GST-FUS3-B3 (Arabidopsis thaliana, UniProt Q9LW31); experiment: as above; conditions: protein: recombinant; tags: GST (N-terminal, pGEX-2T); label: 5' biotin on strand 1 (strand 2 oligo also named 5-Biotin-probe); blunt
T2 chain: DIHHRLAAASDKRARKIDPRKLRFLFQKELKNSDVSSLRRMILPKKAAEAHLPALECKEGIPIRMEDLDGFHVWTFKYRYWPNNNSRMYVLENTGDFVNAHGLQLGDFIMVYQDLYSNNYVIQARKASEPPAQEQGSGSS

B1: Sph2 probe (dsDNA)
DNA 1: CACGGATCATGCATGGACGACACGGATCATGCATGGACGACACG
DNA 2: CGTGTCGTCCATGCATGATCCGTGTCGTCCATGCATGATCCGTG
**Q.** B1 was tested. Which Kd [1] did it give?
**A.** The Kd was 198 nM.

**Q.** What about the Kd [2] of the same binder?
**A.** Its Kd is 1.28 nM.

Source: publication PMC8136769, “Structural variation affecting DNA backbone interactions underlies adaptation of B3 DNA binding domains to constraints imposed by protein architecture”
